Measurements taken from the DeepSol protein solubility set.

Assay: soluble on expression in E. coli; label from the status in PepcDB or PDB records

| Sequence | soluble on expression in E. coli |
| --- | --- |
| METSMITELKSVRDIWKKMPSERHARIFLEEMIWPSGRHCPHCGSLSSTPIRGRTARPGLYQCAERECCLQFTVTTKTPMHATKLDLRIWIAAIFLMLTSSKGISSVVMARILGVNQKTAWKLGHAIRELMDEREAVSARLAGVVEVDEAYVGGAPKFKKGVKNKRGRGTGKPMVLVAADRTGQAKATLIPNAKGATLGPIMKEWIDPSSALMTDSNTAYRKIGRSFASHHTVNHGKRQHSRPSKGAHINTVEAVNSQVQRALIGVYHRLGRQHLQRYLDEILWQWNHRQQEVKIRNRKTSSGTKTIATRVWKPIPVVDQMRGLLCCAVGRQLRRTPQWGLCWPIHLFEHKGTFA | soluble |
| MSLAGFVVTDVTVATCSILNPFSSCKSSAPWWTQVEKDLYLRTGWTSAAYIRFQRKKEEELLPADKVVIDLKISRLAPEVQDDPKEDKADWEQRPGGIWLKRTAKRHASDSHSAITSVDVLFGADAVDPRPGWEVKDTPILLDSRTESLEARITVRRGDPLKIKKPVPRINENGRFKIMQLADLHLSTGLGHCRDPVPPELIPGQGCEADPRTLDFIERLLDEEQPDLVILSGDQVNGETSRDAQSPLFKSVKLLVDRKIPYAAIFGNHDDEGNLDRHQSMAILEDLPYSLSSAGPEDIDGVGNYIVEVLGRGNTDHSALTLYLLDSHSYSPDERQFRGYDWIKPNQIRWFKTTAQGLKAKHQQYAYMHMNMAFIHIPLPEFAQRGNYFRGNWSEPSTAPGFNSGFKDALEEEGILFVGCGHDHANDYCALSKNEAQKPSLWMCYGGGAGFGGYGGYGGFIRRVRFFDFDMNPGRVVTYKRLEYGNTDARIDEMMIVDGGMVKGPDEGHHHHHH | soluble |
| MAEMGSKGVTAGKIASNVQKKLTRAQEKVLQKLGKADETKDEQFEQCVQNFNKQLTEGTRLQKDLRTYLASVKAMHEASKKLNECLQEVYEPDWPGRDEANKIAENNDLLWMDYHQKLVDQALLTMDTYLGQFPDIKSRIAKRGRKLVDYDSARHHYESLQTAKKKDEAKIAKAEEELIKAQKVFEEMNVDLQEELPSLWNSRVGFYVNTFQSIAGLEENFHKEMSKLNQNLNDVLVGLEKQHGSNTFTVKAQPSDNAPAKGNKSPSPPDGSPAATPEIRVNHEPEPAGGATPGATLPKSPSQSSLPAVVVETFPATVNGTVEGGSGAGRLDLPPGFMFKVQAQHDYTATDTDELQLKAGDVVLVIPFQNPEEQDEGWLMGVKESDWNQHKELEKCRGVFPENFTERVP | soluble |
| MGSHHHHHHRTPSDKPVAHVVANPQAEGQLQWLNRRANALLANGVELRDNQLVVPSEGLYLIYSQVLFKGQGCPSTHVLLTHTISRIAVSYQTKVNLLSAIKSPCQRETPEGAEAKPWYEPIYLGGVFQLEKGDRLSAEINRPDYLLFAESGQVYFGIIAL | soluble |
| GSHMGSLDETTYERLAEETLDSLAEFFEDLADKPYTFEDYDVSFGSGVLTVKLGGDLGTYVINKQTPNKQIWLSSPSSGPKRYDWTGKNWVYSHDGVSLHELLAAELTKALKTKLDLSSLAYSGKDA | soluble |
| SMQAARLAKALRELGQTGWYWGSMTVNEAKEKLKEAPEGTFLIRDSSHSDYLLTISVKTSAGPTNLRIEYQDGKFRLDSIICVKSKLKQFDSVVHLIDYYVQMCKDKRTGPEAPRNGTVHLYLTKPLYTSAPSLQHLCRLTINKCTGAIWGLPLPTRLKDYLEEYKFQV | soluble |
| MSPDQKHRYKLYYVNMRGRAEPIRLVFHFLGVDFEDYRMDKGDFTGAMKDKAPMKQLPFIEIDGGKTTLCQTVSICRYLAKSIQPDRWFGGATKTDSAKVDMMADGFADLFQLAAMAKYAPDPIKDSMMGTYKESIGPKLENMQDLLKKSKGEYFVGKSIHWCDVYILGVLQALDESDDGVFDNLPELREYYLRMRNLPELKEYIDANWPETKYKE | not soluble |
| MTCDDWNSYIQVNIYGKTIEGLQQQGVVLESLLNNVGCSKVWIMEGSVCTNPRPESSTHSEESTIEPVVPLSTTLATNKLPRFSTPAIGHSNNNSSKNFTLNLAEKLSEILSDDDKTDEFLENSHQSETSKDDVIKDLLEEMVQTVANSNKPPILLSTTLANVGVPRFSTPIKPQHALNRDFTMNMTEMISEIDSNYEGYELFDDSSNDCTTLTPNCQEVESSFYRALSEAASSIVPYQEGKRRSSRRLSTLSSLKETVKVEPAVSKLTKRRRLTPVECSSETMIPHSQPIPLDTCSDQPIFPNSTHNAIQSDGFSYEQPICEFGDSQLFLSAKSLCTEPNSSIAEDVKPVLTVSDSDITASNRNNIDDHNRVIELSTEV | not soluble |
